Columns and labels:
[1] = molecular target: SARS-CoV-2 spike RBD, C-tagged (SARS-CoV-2 (WT), UniProt P0DTC2 319-532); experiment: BLI competition
[2] = molecular target: T1, SARS-CoV-2 spike RBD, WT, His-tagged (SARS-CoV-2 (WT), UniProt P0DTC2 319-532); experiment: BLI competition
[3] = molecular target: T1, SARS-CoV-2 spike RBD, WT, His-tagged; experiment: FIDA
[4] = molecular target: T1, SARS-CoV-2 spike RBD, WT, His-tagged; experiment: BLI

B1: RBD-PB6-Tc (structured_RNA)
RNA: GGUCCUGGACCGAUACUUCCGUCAGGACCA
modifications: 2'-fluoro pyrimidines
- binding result [1]: no binding

B2: RBD-PB6-Tb (structured_RNA)
RNA: GGUUUGUAAUUCCUGGACCGAUACUUCCGUCAGGACAGACCA
modifications: 2'-fluoro pyrimidines
- binding result [1]: no binding

B3: RBD-PB6-Ta (structured_RNA)
RNA: GGCGACAUUUGUAAUUCCUGGACCGAUACUUCCGUCAGGACAGAGGUUGCCA
modifications: 2'-fluoro pyrimidines
- IC50 [2]: 200 nM

B4: RBD-PB6-Td (structured_RNA)
RNA: GGCGACAUUUGUAAUUCCUGGAUCAGGACAGAGGUUGCCA
modifications: 2'-fluoro pyrimidines
- binding result [1]: no binding

B5: RBD-PB6-Tinv (structured_RNA)
RNA: GGCGACAUUUGUAAUAGGACGACCGAUACUUCCGUGUCCUCAGAGGUUGCCA
modifications: 2'-fluoro pyrimidines
- binding result [1]: no binding

B6: RBD-PB6 (structured_RNA)
RNA: GGGGCCACCAACGACAUUUGUAAUUCCUGGACCGAUACUUCCGUCAGGACAGAGGUUGAUAUAAAUAGUGCCCAUGGAUCC
modifications: 2'-fluoro pyrimidines
- IC50 [2]: ~250 nM
- Kd [3]: 129 nM
- Kd [4]: ~18 nM
